Data as given in doi:10.1101/2024.03.21.586141, “Delving into human α1,4-galactosyltransferase acceptor specificity: the role of enzyme dimerization” (bioRxiv, 2024).
Numbering of substitutions follows the chain as printed. Names may count otherwise.

T1: human β1,4-galactosyltransferase 1 (B4galt1) (human, UniProt P15291-2 1-385)
T1 construct: human β1,4-galactosyltransferase 1, ORF of GenBank NM_001378495.1 nucleotides 30-1187 (1158 nt: 385 codons and stop); Synthetic ORF (Thermo Fisher) recloned into pBiT1.1-N/C and pBiT2.1-N/C; also called N-Lg-B4galt1; C-Lg-B4galt1; source: HEK293T or CHO-Lec2 cells, transfected (PEI), in live cells; not shown: LgBiT or SmBiT (NanoLuc subunit), N-terminal or C-terminal, kept
T1 sequence (looked up): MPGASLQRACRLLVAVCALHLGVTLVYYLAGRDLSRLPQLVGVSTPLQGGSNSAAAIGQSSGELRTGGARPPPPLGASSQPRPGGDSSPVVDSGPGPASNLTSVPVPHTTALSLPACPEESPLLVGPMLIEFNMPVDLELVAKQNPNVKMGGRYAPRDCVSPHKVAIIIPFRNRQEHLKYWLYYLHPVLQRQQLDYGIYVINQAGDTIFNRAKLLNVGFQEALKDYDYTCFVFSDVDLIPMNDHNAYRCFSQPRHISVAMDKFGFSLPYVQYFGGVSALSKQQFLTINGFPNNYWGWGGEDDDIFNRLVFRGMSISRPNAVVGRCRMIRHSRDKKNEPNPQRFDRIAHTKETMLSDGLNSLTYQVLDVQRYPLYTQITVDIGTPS

T2: human β1,4-galactosyltransferase 5 isoenzyme (B4galt5) (human, UniProt O43286 1-388)
T2 construct: human β1,4-galactosyltransferase 5, ORF of GenBank NM_004776.4 nucleotides 189-1355 (388 codons and stop); Synthetic ORF (Thermo Fisher) recloned into pBiT1.1-N/C and pBiT2.1-N/C; also called N-Lg-B4galt5; C-Lg-B4galt5; source: HEK293T or CHO-Lec2 cells, transfected (PEI), in live cells; not shown: LgBiT or SmBiT (NanoLuc subunit), N-terminal or C-terminal, kept
T2 sequence (looked up): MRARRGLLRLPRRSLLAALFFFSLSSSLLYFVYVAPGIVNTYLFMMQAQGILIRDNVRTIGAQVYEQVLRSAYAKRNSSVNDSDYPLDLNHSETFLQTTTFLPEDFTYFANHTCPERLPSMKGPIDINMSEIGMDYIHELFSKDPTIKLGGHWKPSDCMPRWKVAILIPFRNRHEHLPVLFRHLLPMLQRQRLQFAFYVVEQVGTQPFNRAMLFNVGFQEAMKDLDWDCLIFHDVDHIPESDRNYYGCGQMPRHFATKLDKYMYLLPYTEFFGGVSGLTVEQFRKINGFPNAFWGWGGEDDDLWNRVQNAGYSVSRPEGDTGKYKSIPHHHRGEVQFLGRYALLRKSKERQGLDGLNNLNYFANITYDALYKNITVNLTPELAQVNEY

B1: human α1,4-galactosyltransferase (A4galt), high-frequency enzyme (p.Q211) (enzyme, UniProt Q9NPC4 1-353, looked up)
chain: MSKPPDLLLRLLRGAPRQRVCTLFIIGFKFTFFVSIMIYWHVVGEPKEKGQLYNLPAEIPCPTLTPPTPPSHGPTPGNIFFLETSDRTNPNFLFMCSVESAARTHPESHVLVLMKGLPGGNASLPRHLGISLLSCFPNVQMLPLDLRELFRDTPLADWYAAVQGRWEPYLLPVLSDASRIALMWKFGGIYLDTDFIVLKNLRNLTNVLGTQSRYVLNGAFLAFERRHEFMALCMRDFVDHYNGWIWGHQGPQLLTRVFKKWCSIRSLAESRACRGVTTLPPEAFYPIPWQDWKKYFEDINPEELPRLLSATYAVHVWNKKSQGTRFEATSRALLAQLHARYCPTTHEAMKMYL
notes: human α1,4-galactosyltransferase, high-frequency variant with Q at position 211; full-length A4GALT gene from pCAG-A4GALT, GenBank NM_001318038.3 nucleotides 325-1386 (353 codons and stop); Four fusions were made (LgBiT or SmBiT at the N- or C-terminus, vectors pBiT1.1-N/C and pBiT2.1-N/C); every protein stood as LgBiT and as SmBiT fusion; also called Gb3/CD77 synthase; P1/Pk synthase; source: …
B2: human α1,4-galactosyltransferase (A4galt), mutein with p.Q211E substitution (enzyme, UniProt Q9NPC4 1-353, looked up)
chain: B1 chain with Q211E
notes: human α1,4-galactosyltransferase, rare natural variant p.Q211E (c.631C>G, rs397514502); full-length A4GALT gene from pCAG-A4GALT, GenBank NM_001318038.3 nucleotides 325-1386; Four fusions were made (LgBiT or SmBiT at the N- or C-terminus); also called mutein human A4galt; rare enzyme variant; source: HEK293T or CHO-Lec2 cells, transfected (PEI), in live cells; not shown: LgBiT or SmBiT (NanoLuc …)

Experiments:
Conditions in all cases: partners not purified
[1] = molecular target: T1, human β1,4-galactosyltransferase 1 …; experiment: split reporter (BiFC, NanoBiT); NanoBiT in live HEK293T cells, co-transfected with LgBiT and SmBiT fusions (N- or C-terminal, 25 ng of each plasmid a well), Nano-Glo Live Cell Substrate in Opti-MEM; fold of luminescence over LgBiT fusion with HaloTag-SmBiT, threshold 10-fold
[2] = molecular target: T1, human β1,4-galactosyltransferase 1 …; experiment: split reporter (BiFC, NanoBiT); NanoBiT in live CHO-Lec2 cells, co-transfected with LgBiT and SmBiT fusions (N- or C-terminal, 25 ng of each plasmid a well), Nano-Glo Live Cell Substrate in Opti-MEM; fold of luminescence over LgBiT fusion with HaloTag-SmBiT, threshold 10-fold
[3] = molecular target: T2, human β1,4-galactosyltransferase 5 …; experiment: as above

Binder | fold of luminescence over the negative control [1] [times] | fold of luminescence over the negative control [2] [times] | fold of luminescence over the negative control [3] [times]
B1 | ~60 | 90 | 300
B2 | ~30 | 360 | ~1000
